Source: article PMC8437784 (The Journal of Biological Chemistry, 2020)

T1: N-terminal HA-tagged TIN2L (HA-TIN2L, 1-451 aa) (human, UniProt Q9BSI4-1 1-451)
T1 sequence (looked up): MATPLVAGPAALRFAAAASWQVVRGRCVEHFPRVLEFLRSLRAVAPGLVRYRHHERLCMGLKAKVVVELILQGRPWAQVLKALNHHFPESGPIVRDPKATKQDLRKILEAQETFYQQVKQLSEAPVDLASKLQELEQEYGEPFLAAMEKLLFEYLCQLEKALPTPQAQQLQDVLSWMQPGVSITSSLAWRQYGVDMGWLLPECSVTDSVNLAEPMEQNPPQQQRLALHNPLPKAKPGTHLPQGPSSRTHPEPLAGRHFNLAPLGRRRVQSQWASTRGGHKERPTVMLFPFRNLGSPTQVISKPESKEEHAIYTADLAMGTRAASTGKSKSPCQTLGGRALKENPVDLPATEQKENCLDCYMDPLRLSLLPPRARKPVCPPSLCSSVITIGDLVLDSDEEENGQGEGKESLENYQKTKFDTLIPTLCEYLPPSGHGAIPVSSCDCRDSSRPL

T2: Recombinant N-terminal His6-tagged TRF1 (from human) (human), P54274
T2 chain: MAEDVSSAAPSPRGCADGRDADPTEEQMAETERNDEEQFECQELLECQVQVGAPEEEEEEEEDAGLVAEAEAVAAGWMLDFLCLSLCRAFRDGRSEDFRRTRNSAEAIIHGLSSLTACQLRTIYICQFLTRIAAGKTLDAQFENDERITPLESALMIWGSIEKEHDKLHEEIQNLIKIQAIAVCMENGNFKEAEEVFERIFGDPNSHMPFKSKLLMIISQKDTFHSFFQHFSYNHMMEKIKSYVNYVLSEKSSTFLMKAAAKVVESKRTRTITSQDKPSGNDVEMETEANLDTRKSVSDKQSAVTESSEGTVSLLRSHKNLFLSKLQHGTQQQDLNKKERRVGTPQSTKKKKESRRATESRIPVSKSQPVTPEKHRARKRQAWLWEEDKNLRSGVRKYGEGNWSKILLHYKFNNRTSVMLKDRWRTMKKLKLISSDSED

T3: TIN2S (UniProt Q9BSI4-2 1-354)
T3 sequence: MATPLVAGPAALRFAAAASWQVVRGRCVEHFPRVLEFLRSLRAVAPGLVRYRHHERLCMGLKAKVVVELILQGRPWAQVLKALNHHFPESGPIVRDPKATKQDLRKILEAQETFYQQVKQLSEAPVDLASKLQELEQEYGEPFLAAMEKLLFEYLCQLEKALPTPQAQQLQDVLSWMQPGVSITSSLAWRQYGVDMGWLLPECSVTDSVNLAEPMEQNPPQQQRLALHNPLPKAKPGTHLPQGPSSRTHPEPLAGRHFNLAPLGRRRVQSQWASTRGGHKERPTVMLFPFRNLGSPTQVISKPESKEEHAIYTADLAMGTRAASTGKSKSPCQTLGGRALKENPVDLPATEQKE

T4: TIN2L (UniProt Q9BSI4 1-451)
T4 sequence: T1 sequence (looked up)

B1: Recombinant N-terminal His6-tagged TRF1 (from human) (natural protein, UniProt P54274 1-439, looked up)
chain: T2 chain
B2: 48 bp telomeric dsDNA, 3 TTAGGG (dsDNA)
DNA 1: TTAGGGTTAGGGTTAGGGATGTCCAGCAAGCCAGAATTCGGCAGCGTA
DNA 2: TACGCTGCCGAATTCTGGCTTGCTGGACATCCCTAACCCTAACCCTAA
B3: N-terminal HA-tagged TIN2S (HA-TIN2S, 1-354 aa) (natural protein, human, UniProt Q9BSI4-2 1-354, looked up)
chain: T3 sequence

Key:
[1] = target: T1, N-terminal HA-tagged TIN2L (HA-TIN2L, …); experiment: DNA tightrope assay
[2] = target: T2, Recombinant N-terminal His6-tagged TRF1 …; experiment: AFM volume analysis; conditions: remark: other sources report otherwise
TRF1;TIN2S = TRF1;TIN2S (human;human?, UniProt P54274;Q9BSI4-2 1-439;1-354, |); experiment: EMSA
TRF1;TIN2L = TRF1;TIN2L (human;human?, UniProt P54274;Q9BSI4 1-439;1-451, |); experiment: EMSA
TIN2S = target: T3, TIN2S; experiment: EMSA
TIN2L = target: T4, TIN2L; experiment: EMSA
TRF1 = TRF1 (human, UniProt P54274 1-439); experiment: EMSA
[3] = target: B1; experiment: DNA tightrope assay

B1
binding result [1]: binds | stoichiometry N [2]: 2

B2
binding result (TRF1;TIN2S): binds | binding result (TRF1;TIN2L): binds | binding result (TIN2S): no binding | binding result (TIN2L): no binding | binding result (TRF1): binds

B3
binding result [3]: binds
